Laboratory results from patent US20210120790A1.

Key:
[1] = biological target: Endogenous mouse SIRPα of wildtype BALB/c mice (mouse (BALB/c)) (UniProt P97797); test: flow cytometry; CD47 protein on peritoneal cavity cells of wildtype BALB/c mice, detected with human anti-CD47 antibody and AF647 anti-hIgG
[2] = biological target: Endogenous mouse SIRPα of wildtype C57BL/6 mice (mouse (C57BL/6)) (UniProt P97797); test: flow cytometry; CD47 protein on peritoneal cavity cells of wildtype C57BL/6 mice, detected with human anti-CD47 antibody and AF647 anti-hIgG

Chain of UniProt P97797 (P97797 32-513): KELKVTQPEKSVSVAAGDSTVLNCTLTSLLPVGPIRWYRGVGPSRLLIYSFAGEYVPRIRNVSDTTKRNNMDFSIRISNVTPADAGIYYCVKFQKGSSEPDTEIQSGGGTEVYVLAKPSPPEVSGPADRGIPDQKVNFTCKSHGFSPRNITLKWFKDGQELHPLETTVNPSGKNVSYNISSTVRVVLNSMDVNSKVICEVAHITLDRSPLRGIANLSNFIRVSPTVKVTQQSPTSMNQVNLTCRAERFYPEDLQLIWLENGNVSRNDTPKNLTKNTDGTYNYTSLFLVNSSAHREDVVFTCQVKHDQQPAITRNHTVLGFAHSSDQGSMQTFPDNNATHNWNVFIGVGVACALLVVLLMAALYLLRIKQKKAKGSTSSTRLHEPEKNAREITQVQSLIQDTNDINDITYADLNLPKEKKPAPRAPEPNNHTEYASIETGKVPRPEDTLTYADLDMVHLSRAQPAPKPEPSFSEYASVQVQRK

With “Mouse CD47 proteins (added to peritoneal cavity cells, Example 16) (ligand)” the geometric mean of flow cytometry signal [1] was 100 and the geometric mean of flow cytometry signal [2] was 100.
